Experimental data as given in US20200255508A1 (AbbVie / Abbott, published 2020).
Read-outs that look alike come from different tables or passages of the source. One block for each binder: values may come before it.

Key:
[1] = target: T1, human DLL4 extracellular domain (human, UniProt Q9NR61 27-529); test: Biacore SPR;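 also: surface plasmon resonance on a Biacore instrument, antibodies captured on immobilized anti-human Fc, purified recombinant DLL4 extracellular domain injected as analyte, binding followed over time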
T1 construct: extracellular domain; coated on plates in the sVEGFR1 assay; also called huDLL4 ECD; Human DLL4 ECD
Experimental: (§1) Binding of DLL4 antibodies to a purified recombinant DLL4 extracellular domain is determined by surface plasmon resonance-based measurements with a Biacore® instrument (either a Biacore 2000, Biacore 3000, or Biacore T100, GE Healthcare, Piscataway, N.J. US) using running buffer HBS-EPB (10 mM HEPES [pH 7.4], 150 mM NaCl, 3 mM EDTA, 0.1 mg/ml BSA and 0.005% surfactant P20) at 25° C. For example, approximately 9000 RU of goat anti-human Fc specific polyclonal antibody (Thermo Fisher Scientific Inc., Rockford, Ill., US) diluted in 10 mM sodium acetate (pH 4.5) is directly immobilized across a CM5 research grade biosensor chip using a standard amine coupling kit according to manufacturer's instructions and procedures at 25 μg/ml. Unreacted moieties on the biosensor surface are blocked with ethanolamine. For kinetic analysis, rate equations derived from the 1:1 Langmuir binding model are fitted simultaneously to multiple antigen injections (using global fit analysis) with the use of Scrubber 2 (BioLogic Software). […] The equilibrium dissociation constant KD (M) of the reaction between antibodies and the target antigen is then calculated from the kinetic rate constants by the following formula: KD=Koff/Kₒₙ. Binding is recorded as a function of time and kinetic rate constants are calculated. In this assay, on-rates as fast as 10⁶ M⁻¹s⁻¹ and off-rates as slow as 10⁻⁶ s⁻¹ can be measured.

[2] = target: T2, mouse DLL4 extracellular domain (mouse, UniProt Q9JI71 27-532); test: Biacore SPR;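 as to koff: surface plasmon resonance on a Biacore instrument, antibodies captured on immobilized anti-human Fc, purified recombinant DLL4 extracellular domain injected as analyte, binding followed over time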;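 as to kon: surface plasmon resonance on a Biacore instrument, antibodies captured on immobilized anti-human Fc, purified recombinant DLL4 extracellular domain injected as analyte, binding followed over time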
T2 construct: extracellular domain; also called muDLL4 ECD; Mouse DLL4 ECD
Experimental: as §1

[3] = target: T3, mouse DLL4 on the cell surface (mouse, UniProt Q9JI71 27-686); test: competition FACS, competitor huNotch-1; competition FACS, huNotch-1/DLL4 cells (IC50)
T3 construct: whole, on cells; also called HEK293-mDLL4; mDLL4-293G
Experimental: (§2) Notch blocking assay: Briefly, stable cell lines overexpressing cell-surface DLL4 were harvested from tissue culture flasks and re-suspended in phosphate buffered saline (PBS) containing 1% bovine serum albumin and 1 mM CaCl₂ (FACS buffer). HEK293-hDLL4 or HEK293-mDLL4 cells were dispensed into 96-well plate (v-bottom) at 1.5×10⁵ cells/well in FACS buffer. […] After washing the cells two times with FACS buffer, 50 μL of R-phycoerythrin-conjugated streptavidin (1:150 dilution in FACS buffer) (Jackson ImmunoResearch, West Grove, Pa., US, catalog no. 016-110-084) were added. Following an incubation on ice (4° C., 60 minutes), cells were washed three times and resuspended in FACS buffer. Fluorescence was measured using a Becton Dickinson FACSCalibur-HTS (Becton Dickinson, San Jose. Calif.).

[4] = target: T4, human DLL4 on the cell surface (human, UniProt Q9NR61 27-685); test: FACS on DLL4 cells
T4 construct: whole, on cells; also called HEK293-hDLL4; hDLL4-293G

[5] = target: T4, human DLL4 on the cell surface; test: competition FACS, competitor huNotch-1
Experimental: as §2

[6] = target: T2, mouse DLL4 extracellular domain; test: Biacore SPR; remark: listed apart in the source;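 as to koff: surface plasmon resonance on a Biacore instrument, antibodies captured on immobilized anti-human Fc, purified recombinant DLL4 extracellular domain injected as analyte, binding followed over time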
Experimental: The BIACORE® surface plasmon resonance assay (Biacore, Inc., Piscataway, N.J., US) determines the affinity of antibodies with kinetic measurements of on-rate and off-rate constants. Binding of DLL4 antibodies to a purified recombinant DLL4 extracellular domain is determined by surface plasmon resonance-based measurements with a Biacore® instrument (either a Biacore 2000, Biacore 3000, or Biacore T100, GE Healthcare, Piscataway, N.J. US) using running buffer HBS-EPB (10 mM HEPES [pH 7.4], 150 mM NaCl, 3 mM EDTA, 0.1 mg/ml BSA and 0.005% surfactant P20) at 25° C. For example, approximately 9000 RU of goat anti-human Fc specific polyclonal antibody (Thermo Fisher Scientific Inc., Rockford, Ill., US) diluted in 10 mM sodium acetate (pH 4.5) is directly immobilized across a CM5 research grade biosensor chip using a standard amine coupling kit according to manufacturer's instructions and procedures at 25 μg/ml. Unreacted moieties on the biosensor surface are blocked with ethanolamine. For kinetic analysis, rate equations derived from the 1:1 Langmuir binding model are fitted simultaneously to multiple antigen injections (using global fit analysis) with the use of Scrubber 2 (BioLogic Software). […] The equilibrium dissociation constant KD (M) of the reaction between antibodies and the target antigen is then calculated from the kinetic rate constants by the following formula: KD=Koff/Kₒₙ. Binding is recorded as a function of time and kinetic rate constants are calculated. In this assay, on-rates as fast as 10⁶ M⁻¹s⁻¹ and off-rates as slow as 10⁻⁶ s⁻¹ can be measured.

[7] = target: T3, mouse DLL4 on the cell surface; test: FACS on DLL4 cells
Experimental: (§3) Stable cell lines overexpressing cell-surface DLL4 were harvested from tissue culture flasks, washed four times and resuspended in phosphate buffered saline (PBS) containing 1% bovine serum albumin and 1 mM CaCl₂ (FACS buffer), 1.5×10³ cells were incubated with antibodies at various concentrations in FACS buffer for 60 minutes on ice. Cells were washed twice and 50 μL of R-phycoerythrin-conjugated anti-rat IgG. […] Following an incubation on ice (4° C., 60 minutes), cells were washed three times and resuspended in FACS buffer. Fluorescence was measured using a Becton Dickinson FACSCalibur-HTS (Becton Dickinson, San Jose. Calif., US). Data were analyzed using Graphpad Prism software and EC₅₀ values were reported as the concentration of antibody to achieve 50% of maximal DLL4 antibodies binding to DLL4 expressing cells.

[8] = target: T4, human DLL4 on the cell surface; test: FACS on DLL4 cells; remark: listed apart in the source
Experimental: as §3

[9] = target: T1, human DLL4 extracellular domain; test: competition ELISA, competitor huNotch-1
Experimental: (§4) Plates were then washed 3 times with wash buffer (PBS, 0.05% Tween-20) and blocked with 200 μl/well blocking buffer (D-PBS, 1% BSA, 1 mM CaCl₂, 0.05% Tween-20) for 1 hour at 25° C. […] Assay plates were washed after blocking, and incubated with DLL4/antibody mixtures (100 μl/well, 1 hour at 25° C. with shaking). […] After a final wash, plates were developed using 100 μl/well substrate (TMB Sigma # T8665), and the reaction was stopped after an 8-minute incubation at 25° C. (for muDLL4 ELISA) and after 20 minute incubation at 25° C. (for huDLL4 ELISA) using 100 μl/well 1N HCl, and the absorbance was read at 450 nm.

[10] = target: T2, mouse DLL4 extracellular domain; test: competition ELISA, competitor huNotch-1
Experimental: as §4

[11] = target: T1, human DLL4 extracellular domain; test: Biacore SPR (*historic data); historic data, not from the same run as the other cells
[12] = target: T3, mouse DLL4 on the cell surface; test: competition FACS, competitor huNotch-1
Experimental: as §2

[13] = target: T4, human DLL4 on the cell surface; test: competition FACS, competitor huNotch-1; remark: listed apart in the source
Experimental: as §2

mouse DLL4-his = target: T5, mouse DLL4-his (mouse, UniProt Q9JI71 27-532); test: ELISA on DLL4-his
T5 construct: extracellular domain; not shown: his tag

human DLL4-his = target: T6, human DLL4-his (human, UniProt Q9NR61 27-529); test: ELISA on DLL4-his
T6 construct: extracellular domain
Experimental: After the final wash, plates were incubated with 100 μl/well ELISA substrate (Sigma # T8665). The reaction was stopped after 8 minutes at 25° C. with 100 μl/well 1N HCl and the absorbance was read at 450 nm. Data were analyzed using Graphpad Prism software and EC50 values were reported.

T2 sequence (Q9JI71 27-532): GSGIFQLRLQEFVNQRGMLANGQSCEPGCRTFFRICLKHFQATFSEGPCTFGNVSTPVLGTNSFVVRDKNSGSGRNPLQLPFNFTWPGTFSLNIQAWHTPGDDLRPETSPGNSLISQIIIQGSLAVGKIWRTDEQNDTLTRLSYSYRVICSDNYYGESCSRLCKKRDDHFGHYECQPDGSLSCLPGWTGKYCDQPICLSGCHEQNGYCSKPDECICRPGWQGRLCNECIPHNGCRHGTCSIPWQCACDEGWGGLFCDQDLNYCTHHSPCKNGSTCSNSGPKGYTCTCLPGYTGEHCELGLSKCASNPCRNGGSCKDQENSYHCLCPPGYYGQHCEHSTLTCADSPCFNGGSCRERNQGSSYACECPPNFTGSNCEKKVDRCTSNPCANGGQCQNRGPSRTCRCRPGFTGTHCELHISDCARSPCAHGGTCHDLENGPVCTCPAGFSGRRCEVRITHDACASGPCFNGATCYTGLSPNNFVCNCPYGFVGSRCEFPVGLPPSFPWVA
T3 sequence (Q9JI71 27-686): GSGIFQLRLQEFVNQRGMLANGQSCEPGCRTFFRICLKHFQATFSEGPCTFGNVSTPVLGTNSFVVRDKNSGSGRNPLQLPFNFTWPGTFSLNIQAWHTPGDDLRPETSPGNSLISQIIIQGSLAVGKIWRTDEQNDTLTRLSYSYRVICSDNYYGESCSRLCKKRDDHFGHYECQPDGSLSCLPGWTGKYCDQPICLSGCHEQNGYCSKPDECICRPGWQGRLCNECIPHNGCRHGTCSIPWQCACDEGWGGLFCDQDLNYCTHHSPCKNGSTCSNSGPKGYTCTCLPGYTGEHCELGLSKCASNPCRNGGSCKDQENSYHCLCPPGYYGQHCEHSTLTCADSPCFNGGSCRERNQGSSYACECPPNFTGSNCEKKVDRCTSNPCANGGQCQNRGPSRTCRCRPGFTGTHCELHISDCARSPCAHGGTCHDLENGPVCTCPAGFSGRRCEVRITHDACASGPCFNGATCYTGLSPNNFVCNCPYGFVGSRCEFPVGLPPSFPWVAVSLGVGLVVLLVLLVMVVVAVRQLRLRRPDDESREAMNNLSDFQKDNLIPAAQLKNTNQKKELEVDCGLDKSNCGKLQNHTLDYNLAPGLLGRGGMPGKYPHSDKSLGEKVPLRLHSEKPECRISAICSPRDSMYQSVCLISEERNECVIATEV
T5 sequence (Q9JI71 27-532): as the sequence (Q9JI71 27-532) above

Kd [1]: 2.45 nM
koff [1]: 3.15e-05 s⁻¹
kon [1]: 12900 M⁻¹ s⁻¹
Kd [2]: 8.1 nM
koff [2]: 0.000148 s⁻¹
kon [2]: 18300 M⁻¹ s⁻¹
IC50 [3]: 1.1 nM
EC50 [4]: 1.7 nM
IC50 [5]: 12.6 nM
B1: E9.16 (antibody, V domains shown)
VH: EVQLQESGPGLVKPSETLSLTCTVSGGSISSSSYYWGWIRQPPGKGLEWIGDIYYTGSTYYNPSLKSRVTISVDTSKNQFSLKLSSVTAADTAVYYCAREDVILRGGSDYWGQGTLVTVSS
VL: SYELTQPPSVSVSPGQTASITCSGERLGDKYVSWYQQKPGQSPVLVIYEDFKRPSGIPERFSGSNSGDTATLTISGTQPMDEADYYCQAWDRDTGVFGYGTKVTVL
notes: also called DLL4-E9-16 hIgG1/L

Kd [6]: 12.8 nM
Kd [7]: 1.34 nM
Kd [8]: 3.45 nM
IC50 [9]: 2.7 nM
IC50 [10]: 2.9 nM
Kd [11]: 15.2 nM
IC50 [12]: 1.71 nM
IC50 [13]: 8.51 nM
EC50 (mouse DLL4-his): 0.19 nM
EC50 (human DLL4-his): 0.16 nM
B2: E9-SE1 (antibody, V domains shown)
VH: EVQLVESGGGLVQPGGSLRLSCAVSGGSISSSSYYWGWIRQAPGKGLEWIGDIYYTGSTYYNPSLKSRVTISVDTSKNSFYLQMNSLRAEDTAVYYCAREDVILRGGSDYWGQGTLVTVSS
VL: LYVLTQPPSVSVSPGQTASITCSGQRLGDKYASWYQQKPGQSPVLVIYEDSKRPSGIPERFSGSNSGDTATLTISGTQTMDEADYLCQAWDRDTGVFGGGTKVTVLG
notes: full-length human IgG1
